# B1: DAND5: human recombinant DAND5/COCO biologically active fragment produced in E. coli, predicted 18.2 kDa monomer, R&D systems 3047-CC-050 (protein)
# chain: MRPEPQSPRPQSWAAANQTWALGPGALPPLVPASALGSWKAFLGLQKARQLGMGRLQRGQDEVAAVTLPLNPQEVIQGMCKAVPFVQVFSRPGCSAIRLRNHLCFGHCSSLYIPGSDPTPLVLCNSCMPARKRWAPVVLWCLTGSSASRRRVKISTMLIEGCHCSPKA
# Columns and labels:
# HUVECs [1] = assay: Scratch (wound healing) assay, endothelial cell migration; format: cell-based, human
# Experimental: Confluent HUVEC monolayers were grown in 6-well plates. Cells were starved 18 hours in EBM-2 medium with 1% FBS. A horizontal wound was created using a sterile 200 μl pipette tip. Next, the cells were washed with EBM2 at 37° C. and incubated in EBM-2 supplemented with VEGF-A (25 ng/ml) or DAND5 (60 ng/ml) at 37° C. for 16 hours. Pictures of scratch wounds were taken just before stimulation (time 0) and after 16 h. Migration % was calculated using ImageJ™ software.
# To evaluate the cellular mechanisms underlying the inhibitory effects of DAND5 on endothelial cells sprouting, we assessed the effects of DAND5 on endothelial cell migration and proliferation. Endothelial cell migration plays an essential role in neovascularization, as endothelial tip cells will need to migrate in response to VEGF, and constitutes one of the first steps of the angiogenic response. To address the effects of DAND5 on EC migration, HUVECs were subjected to a wound healing assay. Briefly, a scratch was performed on a confluent monolayer of HUVECs, and wound closure was evaluated at the time of the scratch and again after […].
# HUVECs [2] = assay: Apoptosis of cultured endothelial cells (cleaved caspase 3); format: cell-based, human; conditions: HUVECs cultured for 18 hours
# Wnt signaling = assay: Canonical Wnt signaling in HUVECs (immunoblotting, β-catenin immunofluorescence); format: cell-based, human
# Experimental: FIG. 12 is a panel with a schematic, pictures showing that Dand5 reduces canonical Wnt signaling in HUVECs. HUVECs were plated to confluence and received a 2 h scratch in the presence or absence of Dand5 ([…]) or IWR1 (3 μM). β-catenin (green) localization was examined by immunofluorescence with phalloidin and DAPI (nuclei) to identify the cell boundaries and nucleus. […] Scale bars, […]).
# Cells were washed with cold PBS and extracted in Laemmli's buffer, followed by sonication. Samples were run on SDS-PAGE gels and transferred onto nitrocellulose membranes. Membranes were blocked with 5% Bovine Serum Albumin (BSA) and probed with primary antibodies overnight at 4° C.: beta-Catenin (Cell Signaling Technology), phospho-beta-catenin (Cell Signaling Technology), Axin2 (Cell Signaling Technology), beta-Actin (Santa Cruz Technologies). HRP-conjugated secondary antibodies (Vector Laboratories) were used to detect primary antibodies.
# We next evaluated the molecular mechanisms underlying the effects of DAND5 on endothelial cells. […] Wnt signaling regulates fundamental aspects of vascular development, including cell fate specification, proliferation and survival. […] HUVECs were treated for up to 24 hours with DAND5 or IWR-1, an inhibitor of Wnt canonical signaling. Protein extracts were harvested and subjected to immunoblotting against downstream effectors of Wnt signaling. […] The levels of β-catenin at different subcellular localizations are regulated by a variety of processes including site-specific phosphorylation of β-catenin. In the absence of an active Wnt signaling, β-catenin localization at cellular junctions is reduced and cytoplasmic β-catenin associates with the destruction complex (6).
# Wnt-induced angiogenesis = assay: Wnt1 and DAND5 co-injection during retinal vascular development (P1 to P5); format: in vivo, mouse; conditions: quantification of vascular branches in treated eyes
# Experimental: FIG. 13 is a panel with pictures and graphs showing that Dand5 opposes Wnt1-mediated hypervascularization during retinal vascular development. FIG. 13A: Schematic representation of experimental design. C57B6 pups were injected at P1 with PBS, Dand5 (60 ng/mL), Wnt1, or Wnt1 and Dand5 together at various molar ratios (1N, 5N and 10N). FIG. 13B: Representative images of retinas treated with PBS, Dand5 (1N) or Wnt1 (1N). FIG. 13C: Representative images of retinas treated with PBS or with Wnt1 (5N and 10N) alone or in combination with Danb5. Dand5 Flatmounts retinas were stained with Isolectin B4 to visualize the vasculature. FIG. 13D: Quantification of vascular branches in treated eyes. […] To address the antagonism of DAND5 on Wnt-induced angiogenesis, retinas were injected with recombinant DAND5 (60 ng) with increasing concentrations of Wnt1 (0, 1, 5 or 10× molar ratio) at P1 and retinas were harvested at P5 (FIG. 13A).
# HUVECs [3] = assay: Free radicals / ROS in HUVECs (DCFDA, MitoSoxRed); format: cell-based, human; conditions: HUVECs
# Experimental: FIG. 8 is a panel with graphs and pictures showing that Dand5 induces mitochondrial oxidative stress and alters ATP levels in HUVECs. FIG. 8A: HUVEC cells were treated with Dand5 in the presence or not of N-acetylcysteine (NAC) for up to 48 hours. Cells were then incubated with H2DCFDA. Hydrogen peroxide treated cells (H2O2) were included as a positive control. Fluorescence was measured at Ex: 485 nm and Em: 535 nm in a plate reader. Relative Fluorescence Units (RFU) were generated by normalizing the reading of each well to Hoescht staining (n=3,*p<0.05 **p<0.001). FIG. 8B: HUVEC cells were treated with Dand5 in for up to 48 hours. Cells were incubated with MitoSox Red. 3-nitro-proprionic acid (3-NP) treated cells were also examined as a positive control. Fluorescence was measured at Ex: 544 nm and Em: 590 nm. Relative Fluorescence Units (RFU) were generated by normalizing the reading of each well to Hoescht staining (n=3,*p<0.05). FIG. 8C: Primary culture of choroidal sprouts were treated with Dand5 in the absence or presence of NAC. FIG. 8D: Quantification of sprouting area by Image J. FIG. 8E: The ratio of NAD+ to NADH in whole cell extracts was determined using an Alcohol Dehydrogenase/Malate Dehydrogenase enzymatic cycling assay. Cells treated to hypoxic conditions (4% O2 for 3 hours) were included as a positive control (n=3,*p<0.05, **p<0.01). Likewise, glucose uptake was reduced in Dand5-treated HUVECs after 1 hour, while lactate levels were increased (lower panel). FIG. 8F: ATP levels were reduced in HUVECs exposed to Dand5 at 1, 6 and 24 hours (n=3,*p=0.05).
# We exposed or not HUVECs to recombinant DAND5 and measured the concentration of free radicals using DCFDA and MitoSoxRed™. […] To further test this, we measure the NAD+/NADH ratio in cells treated or not with DAND5. […] Likewise, glucose uptake was reduced and lactate levels were increased in DAND5-treated HUVECs after 1 h (FIG. 8E, lower panel).
# [4] = HUVECs treated for up to 24 hours, immunoblotting
molecule,measurement,setting,value
B1,polarization of the Golgi apparatus towards the leading edge,HUVECs [1]; cells at the wound edge,did not significantly affect polarization of the Golgi apparatus towards the leading edge
same,wound closure (VEGF-induced cell migration),"HUVECs [1]; confluent HUVEC monolayer, DAND5 60 ng/ml, evaluated after 18 hours",significantly delayed wound closure compared to control treatment
same,proportion of cleaved caspase 3 (CC3)-positive cells,HUVECs [2],did not show differences in the proportion of cleaved caspase 3 (CC3)-positive cells
same,levels of Axin2,Wnt signaling; [4],increased levels of Axin2
same,levels of phosphorylated beta-catenin,Wnt signaling; [4],increased levels of phosphorylated beta-catenin
same,levels of total beta-catenin,Wnt signaling; [4],decreased levels of total beta-catenin
same,cytoplasmic β-catenin,"Wnt signaling; confluent HUVECs, 2 h scratch, Dand5 60n/mL or IWR1 3 μM",increased cytoplasmic β-catenin
same,β-catenin subcellular localization,Wnt signaling; staining of HUVECs cultured in the presence of DAND5,decreased membrane localization and increased internalization of β-catenin in the cytoplasm
same,mutual antagonism on vascular branches,Wnt-induced angiogenesis,mutually antagonist activities
same,free radicals (DCFDA),HUVECs [3]; 24 h and 48 h post-treatment,induced elevation of free radicals 24 h and 48 h post-treatment
same,"mitochondrial reactive oxygen species (MitoSoxRed), time course",HUVECs [3]; time-course analysis,induced before cytosolic ROS

# — patent US20220265772A1, “USES OF DAN FAMILY BMP ANTAGONISTS FOR INHIBITING OCULAR NEOVASCULARIZATION AND TREATING OCULAR CONDITIONS” (9636137 Canada Inc., priority 2019, published 2022)
